Experimental data published in paper PMC4737149, “The autoinhibitory CARD2-Hel2i Interface of RIG-I governs RNA selection”.
Where a chain is given by its changes, count along the chain named.

How the values were obtained:
[1] = target: T1, Helicase-RD (RIG-I lacking CARDs) (human, UniProt O95786 232-925); assay: ATPase titration (Kd,app); ATP, 15 C; Buffer A (composition not in the material; 150 mM NaCl stated for some supplementary assays); anisotropy at 15 C with 1-2 nM (blunt) or 40 nM (non-blunt) labell; conditions: protein: recombinant, tags: N-terminal SUMO fusion construct, His (Ni-NTA)
T1 sequence: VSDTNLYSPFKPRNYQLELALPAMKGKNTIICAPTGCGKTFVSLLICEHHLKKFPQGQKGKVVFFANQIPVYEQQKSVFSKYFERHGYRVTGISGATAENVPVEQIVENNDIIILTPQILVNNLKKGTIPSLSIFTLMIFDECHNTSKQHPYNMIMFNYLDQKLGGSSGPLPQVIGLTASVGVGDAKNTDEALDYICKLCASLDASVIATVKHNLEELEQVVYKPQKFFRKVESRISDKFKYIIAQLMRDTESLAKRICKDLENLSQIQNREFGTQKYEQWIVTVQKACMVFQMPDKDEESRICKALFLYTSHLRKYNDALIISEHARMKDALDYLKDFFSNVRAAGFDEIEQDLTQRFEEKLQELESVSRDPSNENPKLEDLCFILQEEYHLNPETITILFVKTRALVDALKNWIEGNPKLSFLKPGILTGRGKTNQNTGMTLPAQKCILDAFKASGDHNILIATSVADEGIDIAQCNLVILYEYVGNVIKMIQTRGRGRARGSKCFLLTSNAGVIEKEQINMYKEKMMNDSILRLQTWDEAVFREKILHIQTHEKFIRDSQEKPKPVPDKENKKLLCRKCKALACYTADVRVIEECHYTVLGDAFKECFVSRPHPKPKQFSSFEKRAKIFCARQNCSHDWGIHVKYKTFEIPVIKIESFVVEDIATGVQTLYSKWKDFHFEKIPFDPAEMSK

[2] = target: T2, RIG-I R109A/L110A (CARD2-Hel2i interface mutant) (human, UniProt O95786 1-925, R109A;L110A); assay: as above; conditions: protein: recombinant, tags: N-terminal SUMO fusion construct, His (Ni-NTA)
T2 sequence: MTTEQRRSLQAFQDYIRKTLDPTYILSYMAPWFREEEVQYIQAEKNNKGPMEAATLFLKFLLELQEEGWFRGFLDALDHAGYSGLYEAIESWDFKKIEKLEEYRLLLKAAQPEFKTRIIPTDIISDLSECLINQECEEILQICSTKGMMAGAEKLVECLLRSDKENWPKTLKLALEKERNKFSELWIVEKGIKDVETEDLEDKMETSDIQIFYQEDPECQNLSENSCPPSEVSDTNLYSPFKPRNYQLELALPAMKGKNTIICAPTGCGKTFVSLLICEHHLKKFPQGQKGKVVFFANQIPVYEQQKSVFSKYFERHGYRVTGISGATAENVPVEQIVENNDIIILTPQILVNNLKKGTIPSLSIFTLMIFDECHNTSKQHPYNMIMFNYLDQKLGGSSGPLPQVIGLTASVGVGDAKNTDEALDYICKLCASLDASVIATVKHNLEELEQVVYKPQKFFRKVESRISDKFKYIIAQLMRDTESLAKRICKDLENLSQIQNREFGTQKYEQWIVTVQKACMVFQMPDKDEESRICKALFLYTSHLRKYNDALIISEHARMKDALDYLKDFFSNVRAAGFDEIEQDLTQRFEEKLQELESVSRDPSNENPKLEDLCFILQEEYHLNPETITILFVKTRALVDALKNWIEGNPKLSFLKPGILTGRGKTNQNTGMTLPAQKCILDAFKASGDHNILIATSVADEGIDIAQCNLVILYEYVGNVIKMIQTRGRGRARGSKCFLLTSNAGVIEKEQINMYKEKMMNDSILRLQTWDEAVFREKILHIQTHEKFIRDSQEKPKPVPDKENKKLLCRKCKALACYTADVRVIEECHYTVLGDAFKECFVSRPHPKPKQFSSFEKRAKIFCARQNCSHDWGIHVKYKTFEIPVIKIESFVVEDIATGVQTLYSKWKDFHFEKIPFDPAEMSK

[3] = target: T3, RIG-I full length (wt) (human, UniProt O95786 1-925); assay: as above; conditions: protein: recombinant; tags: N-terminal SUMO fusion construct, His (Ni-NTA); label: fluorescein on strand 2 in fluorescence assays; 3' overhangs 2 nt at both ends, 8 bp
T3 sequence: T2 sequence with A109R, A110L

[4] = target: T4, RIG-I C-terminal repressor domain (RD) (human, UniProt O95786 801-925); assay: fluorescence anisotropy; no ATP, 15 C; Buffer A (composition not in the material; 150 mM NaCl stated for some supplementary assays); anisotropy at 15 C with 1-2 nM (blunt) or 40 nM (non-blunt) labell; conditions: protein: recombinant; tags: N-terminal SUMO fusion construct, His (Ni-NTA); label: fluorescein on strand 2 in fluorescence assays; 3' overhangs 2 nt at both ends, 8 bp
T4 sequence: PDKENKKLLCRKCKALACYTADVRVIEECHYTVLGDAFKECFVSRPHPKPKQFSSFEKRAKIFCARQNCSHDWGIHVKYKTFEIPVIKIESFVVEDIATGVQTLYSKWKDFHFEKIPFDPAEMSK

[5] = target: T3, RIG-I full length (wt); assay: as above; conditions: protein: recombinant, tags: N-terminal SUMO fusion construct, His (Ni-NTA)
[6] = target: T3, RIG-I full length (wt); assay: ATPase titration (Kd,app); ATP, 150 mM NaCl, 37 C; Buffer A (composition not in the material; 150 mM NaCl stated for some supplementary assays); anisotropy at 15 C with 1-2 nM (blunt) or 40 nM (non-blunt) labell; conditions: protein: recombinant, tags: N-terminal SUMO fusion construct, His (Ni-NTA)
[7] = target: T3, RIG-I full length (wt); assay: ATPase titration (Kd,app); ATP, 37 C; Buffer A (composition not in the material; 150 mM NaCl stated for some supplementary assays); anisotropy at 15 C with 1-2 nM (blunt) or 40 nM (non-blunt) labell; conditions: protein: recombinant, tags: N-terminal SUMO fusion construct, His (Ni-NTA)
[8] = target: T3, RIG-I full length (wt); assay: ATPase titration (Kd,app); ATP, 15 C; Buffer A (composition not in the material; 150 mM NaCl stated for some supplementary assays); anisotropy at 15 C with 1-2 nM (blunt) or 40 nM (non-blunt) labell; conditions: protein: recombinant, tags: N-terminal SUMO fusion construct, His (Ni-NTA), label: fluorescein on strand 2 in fluorescence assays (5' for anisotropy, 3' for intensity), none in ATPase assays
[9] = target: T3, RIG-I full length (wt); assay: ATPase titration (Kd,app); ATP, 15 C; same as Kd without ATP; Buffer A (composition not in the material; 150 mM NaCl stated for some supplementary assays); anisotropy at 15 C with 1-2 nM (blunt) or 40 nM (non-blunt) labell; conditions: protein: recombinant, tags: N-terminal SUMO fusion construct, His (Ni-NTA), none in ATPase assays
[10] = target: T1, Helicase-RD (RIG-I lacking CARDs); assay: stopped-flow kinetics (koff/kon); 15 C; koff 1.5e-3 s-1, kon 6e8 M-1 s-1; Buffer A (composition not in the material; 150 mM NaCl stated for some supplementary assays); anisotropy at 15 C with 1-2 nM (blunt) or 40 nM (non-blunt) labell; conditions: protein: recombinant, tags: N-terminal SUMO fusion construct, His (Ni-NTA), none in ATPase assays
[11] = target: T1, Helicase-RD (RIG-I lacking CARDs); assay: ATPase titration (Kd,app); ATP, 37 C; Buffer A (composition not in the material; 150 mM NaCl stated for some supplementary assays); anisotropy at 15 C with 1-2 nM (blunt) or 40 nM (non-blunt) labell; conditions: protein: recombinant; tags: N-terminal SUMO fusion construct, His (Ni-NTA); single strand
[12] = label: fluorescein on strand 2 in fluorescence assays, 3' overhangs 2 nt at both ends, 8 bp
[13] = hairpin with 5-nt U overhangs at both 5' and 3' ends
[14] = label: fluorescein on strand 2 in fluorescence assays (5' for anisotropy, 3' for intensity), none in ATPase assays, blunt
[15] = label: 5' fluorescein on strand 2 in fluorescence assays, 5' overhangs 2 nt at both ends, 8 bp

B1: 5'OH 3'ovg RNA (dsRNA)
RNA 1: CGUGAGACAU
RNA 2: GUCUCACGUA
In the case of B1, the Kd [1, 12] is reported as roughly 1.5 nM and the Kd [2, 12] is reported as 121 ± 14 nM.

B2: 5'ppp 3'ovg RNA (dsRNA)
RNA 1: CGUGAGACAU
RNA 2: GUCUCACGUA
modifications: 5'-triphosphate on strand 1
In the case of B2, the binding signal [3] is reported as ~16 fold Kd,app/Kd without ATP, the Kd [1, 12] is reported as roughly 0.1 nM and the Kd [2, 12] is reported as 16 ± 4 nM. For the same binder, the Kd [4] was 165 ± 2 nM and the Kd [5, 12] was 3 ± 0.4 nM.

B3: 5'ppp RNA 3'F (dsRNA)
RNA 1: CGUGAGACAU
RNA 2: AUGUCUCACG
modifications: 5'-triphosphate on strand 1
With B3 the Kd ([6]; label: 3' fluorescein on strand 2) was 73 ± 18 nM.

With GAAUAUAAUAGUGAUAUUAUAUUC (structured_RNA, 5'-triphosphate) [5'ppp HP] the Kd ([7]; hairpin, blunt) was 6 ± 0.7 nM.

With UUUUUGAAUAUAAUAGUGAUAUUAUAUUCUUUUU (structured_RNA) [dsRNA stem (hairpin with two overhangs)] the Kd [7, 13] was 629 ± 165 nM, the Kd [1, 13] was 0.6 ± 0.4 nM and the Kd [2, 13] was 53 ± 9 nM. It also gave a Kd [5, 13] of roughly 450 nM.

B4: 5'OH RNA (10-bp blunt) (dsRNA)
RNA 1: CGUGAGACAU
RNA 2: AUGUCUCACG
B4 was tested, and the binding signal [8] was ~2.5 fold Kd,app/Kd without ATP, the Kd [1, 14] was 0.07 nM and the Kd [2, 14] was 0.2 ± 0.3 nM. The Kd [5, 14] was 6 ± 0.4 nM.

B5: 5'ppp RNA (10-bp blunt) (dsRNA)
RNA 1: CGUGAGACAU
RNA 2: AUGUCUCACG
modifications: 5'-triphosphate on strand 1
B5 was tested, and the binding signal [9] was 1 fold Kd,app/Kd without ATP, the Kd ([6]; none in ATPase assays) was 90 ± 29 nM and the Kd ([2]; none in ATPase assays, blunt) was 0.1 ± 0.1 nM. For the same binder, the Kd ([5]; none in ATPase assays, blunt) was 0.4 ± 0.2 nM and the Kd [10] was 0.0025 nM.

For CGUGAGACAU (ssRNA) [5'OH ss10 RNA], the Kd [11] was 1600 ± 500 nM.

B6: 5'OH 5'ovg RNA (dsRNA)
RNA 1: CGUGAGACAU
RNA 2: UCAUGUCUCA
With B6 the Kd [1, 15] was roughly 1.5 nM, the Kd [2, 15] was 64 ± 7 nM and the Kd [5, 15] was roughly 450 nM.

GAAUAUAAUAGUGAUAUUAUAUUC (structured_RNA) [5'OH HP] showed a Kd ([7]; hairpin, blunt) of 39 ± 4 nM.

B7: 5'ppp 5'ovg RNA (dsRNA)
RNA 1: CGUGAGACAU
RNA 2: UCAUGUCUCA
modifications: 5'-triphosphate on strand 1
Binder B7 has a Kd [1, 15] of roughly 0.1 nM and a Kd [2, 15] of 43 ± 5 nM.

CGUGAGACAU (ssRNA, 5'-triphosphate) [5'ppp ss10 RNA] was tested, and the Kd [11] was 500 ± 100 nM.
